Results on one protein are retold here after US12371675B2, “Process and microorganism for synthesis of adipic acid from carboxylic acids” (THE GOVERNING COUNCIL OF THE UNIVERSITY OF TORONTO, priority 2015, dated 2025).

Substrate in data set [1]: O=C(O)/C=C/c1ccccc1
Kind of data set: Kinetics of purified EREDCA, NADH oxidation at 340 nm, anaerobic. Format: biochemical, Clostridium acetobutylicum DSM 1731. The following applies: other: trans-cinnamic acid, pH 7.0, 30° C., anaerobic. The protocol:
(§1) The C═C reducing activity of EREDs was examined. Enzyme activity of purified EREDs was measured spectrophotometrically in 96-well plates by following incubation for 3-5 min at 30° C. in the anaerobic chamber as described in M. Buhler, H. Simon, Hoppe-Seyler's Zeitschrift fur Physiologische Chemie 1982, 363, 609-625. Buffers and reagents were degassed and sparged with Ar. Reaction mixture contained potassium phosphate (100 mM and pH 7.0), NADH (0.5 mM), indicated substrates, and proteins (0.1-50 μg) in a final volume of 200 μL. Enzyme reactions were monitored by following the decrease in absorbance at 340 nm (ε340 nm=6,220/M·cm) due to oxidation of NADH to NAD+.
(§2) For in vitro biochemical characterization, enzyme activities of purified EREDs were measured with 2-hexenedioic acid, cis-cis-muconic acid, trans-trans muconic acid, trans-cinnamic acid, trans-2-methyl-2-butenoic acid, trans-2-butenoic acid, acrolein, 2-cyclohexen-1-one, and 3-methyl-2-cyclohexenone. […] [Feng, J. et al. Discovery and Characterization of BlsE, a Radical S-Adenosyl-L-methionine Decarboxylase Involved in the Blasticidin S Biosynthetic Pathway. PLoS ONE 8 (2013)].
(§3) To increase the dissolved substrate concentration, 2-hexenedioic acid was dissolved in a reaction mixture containing […] (final concentration) isopropanol, and kinetic constants of EREDBC and EREDCA were determined.

Substrate in data set [2]: O=C(O)C=CCCC(=O)O
Described as above. Format: biochemical, Clostridium acetobutylicum DSM 1731. The following applies: other: 2-hexenedioic acid in 0.25 mM isopropanol, 2.5 to 35 mM, sigmoidal kinetics, pH 7.0, 30.0 °C. The protocol:
as §1, §2, §3

B1: Clostridium acetobutylicum DSM 1731 2-enoate reductase EREDCA, SEQ ID NO: 2 (Clostridium acetobutylicum ATCC 824) (protein)
chain: MNKYKKLFEPIKIGKCEIKNRFALAPMGPLGLADSEGGFNQRGIDYYTERAKGGTGLIITGVTFVDNEVEEHGMPNCPCPTHNPVQFVRTGREMTERIHAYNSKVFLQMSGGFGRVTIPTNLGEFPPVAPSPIQHRWLDKTCRELTVDEIKSIVKKFGEGAFNAKRAGFDGVQIHAVHEGYLIDQFAISLFNHRTDEYGGSLENRLRFAREIVEEIKNRCGEDFPVTLRYSPKSFIKDLRDGALPGEEFVEKGRDLDEGVEAAKLLVSYGYDALDTDVGSYDSWWWSHPPMYQEKGLYRKYAKLMKDTVDVPVICAGRMDDPDMALEAVENGTCDVISLGRPLLADPDYVNKLRSNKCKSIRPCISCQEGCMGRVQHYSMLNCAVNPQACKERANSLTPIIKSKKVLIVGGGVAGCEAARVLALRGHEPVLYEKSNRLGGNLIPGGAPSFKEDDIALADWYTNTLKELNVEVNLNSEVTKEQILNSKFDTVIVATGSTPKVFPLGDDEKVFTAAEVLLGQKDPGETTVVVGGGLVGCELALDLAKKGKKVTIVEALNKILALNGPLCSANSEMLQKLIPFNGIDVKANSKVKGYKNGLLKMETENGIEELPCDSVILSVGYKEENSLYKELEFEIPEIYLLGDARKVSNIMYGIWDAFEVANHI
Consider B1, for which, in data set [1], the Km (in general, the concentration of substrate that gives half-maximal velocity) worked out at 0.17 mM; the catalytic constant (kcat) (usually the number of substrate molecules converted per active site and unit of time at saturation) amounted to 5.2 s⁻¹. In addition, in data set [2], the Km is listed as 20.47 mM.
